PMC10367348 (Journal of Biomedical Science, 2023)
Where a chain is given by its changes, count along the chain named. Ends that are not written are not given here.

T1: biotinylated BSA conjugated peptide (influenza A virus, also: biotinylated, BSA conjugated)
T1 peptide: KSLLTEVETPI

B1: scFv JU1 (scFv, V domains shown)
VH: EVQLLESGGGLVQPGGSLRLSCAASGFTFSSYAMSWVRQAPGKGLEWVSRISAQGNQTRYSDSVKGRFTISRDNSKNTLYLQMNSLRAEDTAVYYCAKKSSYFDYWGQGTLVTVSS
VL: DIQMTQSPSSLSASVGDRVTITCRASQSISSYLNWYQQKPGKAPKLLIYKASTLQSGVPSRFSGSGSGTDFTLTISSLQPEDFATYYCQQWRTRPLTFGQGTKVEIK
B2: scFv UU1 (scFv, V domains shown)
VH: B1 VH with R50T, A53M, Q54S, N56K, Q57R, R59Q, S61A, K99R, S100H, S101R
VL: B1 VL with K50R, T53K, W91P, R92G, T93W, L96K
B3: scFv GU1 (scFv, V domains shown)
VH: EVQLLESGGGLVQPGGSLRLSCAASGFTFSSYAMSWVRQAPGKGLEWVSGISQLGGYTGYAGSVKGRFTISRDNSKNTLYLQMNSLRAEDTAVYYCAKNRATFDYWGQGTLVTVSS
VL: B1 VL with K50A, T53H, W91S, R92Q, T93H, R94K
B4: scFv AU1 (scFv, V domains shown)
VH: B3 VH with G50T, S52L, L54H, G56Q, Y57R, G59L, G62D, T102V
VL: B1 VL with K50T, W91Y, T93Q, L96P
notes: also called AU1 scFv

What follows are binders tested against T2, matrix protein 2 [Influenza A virus (A/New York/392/2004(H3N2))] (Influenza A virus (A/New …, UniProt P0DOF5, strain)) (assay: flow cytometry on cells). Conditions: one partner purified.
T2 construct: also called M2; M2 protein

Binder | binding result
B1 | binds
B2 | binds
B3 | binds
B4 | binds

Target: T1, biotinylated BSA conjugated peptide
Assay: BLI
Conditions: not given

Binder | Kd [nM]
B1 | 3610
B2 | 8600
B3 | 350
B4 | 940
